# According to patent US20240210401A1, “METHOD OF USING PACAP AND VIP PEPTIDES FOR DETECTING SHED OR CIRCULATING TUMOR CELLS IN BIOLOGICAL FLUIDS” (Thomas Jefferson University, priority 2013, published 2024):
# Target: T1, VPAC1 receptors expressed on the cell membrane of prostate cancer cells (Homo sapiens, UniProt P32241)
# T1 construct: VPAC1 receptors expressed on the cell membrane of prostate cancer cells; endogenous in cells; host or cells: prostate cancer cells cytospun from patients' urine
# T1 sequence (P32241 31-457): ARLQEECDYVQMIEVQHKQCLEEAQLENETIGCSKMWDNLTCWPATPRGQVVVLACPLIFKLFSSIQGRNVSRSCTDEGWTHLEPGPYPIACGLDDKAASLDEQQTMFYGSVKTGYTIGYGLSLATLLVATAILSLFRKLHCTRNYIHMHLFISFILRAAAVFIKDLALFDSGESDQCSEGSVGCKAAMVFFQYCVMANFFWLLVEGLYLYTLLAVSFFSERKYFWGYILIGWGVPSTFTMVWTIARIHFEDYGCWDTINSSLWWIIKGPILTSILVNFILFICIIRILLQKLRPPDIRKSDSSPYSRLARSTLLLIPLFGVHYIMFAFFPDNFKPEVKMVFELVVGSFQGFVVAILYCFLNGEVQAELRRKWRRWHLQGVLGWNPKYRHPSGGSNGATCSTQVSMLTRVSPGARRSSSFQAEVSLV
# Experiment: Confocal imaging of cells from urine samples of prostate cancer patients
# Type: cell-based
# Text: The PACAP peptide, […]γAba-Lys (R) (SEQ ID NO: 7), was synthesized on a Wang resin using an ABI 341A peptide synthesizer (Applied Biosystems, Foster City, CA). The 27-amino acid long PACAP sequence was then assembled by standard Fmoc chemistry and coupled with a free sulfhydryl group attached to the C-terminus. This C-terminal sulfhydryl group was then reacted with a maleimide functionalized NIR dye to yield TP4303.
# Urine samples from two patients, one with early phase prostate cancer and the other with advanced prostate cancer, were cytospinned, and cells were collected on glass slides. The cells were incubated with TP4303, washed with phosphate-buffered saline (PBS) and the slide was dried. The cells were treated with DAPI (4′,6-diamidino-2-phenylindole, a fluorescent stain that binds strongly to A-T rich regions in cellular DNA), a cover slip was placed on the sample and confocal microscopic analysis was performed (excitation, […]; emission, […]).
substance,measurement,setting,value
"His-Ser-Asp-Gly-Ile-Phe-Thr-Asp-Ser-Tyr-Ser-Arg-Tyr-Arg-Lys-Gln-Met-Ala-Val-Lys-Lys-Tyr-Leu-Ala-Ala-Val-Leu-γAba-Lys (R) (SEQ ID NO: 7) (HSDGIFTDSYSRYRKQMAVKKYLAAVLEK; maleimide NIR dye conjugated via C-terminal sulfhydryl; MOD_RES 28 4Abu) [TP4303, PACAP peptide with C-terminal sulfhydryl group reacted with a maleimide functionalized NIR dye]",interaction with epithelial cells,"epithelial cells in the urine samples, identified by DAPI, not expressing VPAC1",did not interact
same,interaction with sperm,"sperm in the urine sample, identified by DAPI, not expressing VPAC1",did not interact
same,binding to VPAC1 receptors on prostate cancer cells,"urine of two patients (early phase and advanced prostate cancer), confocal microscopy",bound
